For test [1], the target named is Pertuzumab-specific HER2 antigen (Rhinogen®). The test is described as follows: SPR, Biacore T200; IgG captured by anti-human Fc on CM5 chip, antigen flowed over.
For test [2] the target is unchanged. Description: ELISA; antigen coated at 2 µg/ml, HRP anti-human light chain detection. (In general: ELISA stands for enzyme-linked immunosorbent assay.)

This passage reports Kd and EC50 results from patent US20220143178A1.

Pertuzumab (antibody) gave an equilibrium dissociation constant (Kd) in test [1] of 2.81 nM. The same substance yielded an EC50 in test [2] of 0.0153 µg/mL.

For orientation: Kd means the free concentration of one partner at which half of the binding sites on the other are occupied at equilibrium, for simple one-to-one binding. Broadly, the EC50 is the midpoint of the concentration-response curve. The low end stands for a more potent agent, the high end for a less potent agent.
